In the assay the target is Arp2/3 complex from strain Arp2cys-Arp3cys, labeled with Alexa 488 and Alexa 594 (Schizosaccharomyces pombe) (UniProt P78774). As to the kind of experiment: FRET or BRET. (BRET reads energy transfer from a luciferase to a nearby fluorophore.)
Sequence of UniProt P78774 (P78774 whole entry, looked up, one chain of several): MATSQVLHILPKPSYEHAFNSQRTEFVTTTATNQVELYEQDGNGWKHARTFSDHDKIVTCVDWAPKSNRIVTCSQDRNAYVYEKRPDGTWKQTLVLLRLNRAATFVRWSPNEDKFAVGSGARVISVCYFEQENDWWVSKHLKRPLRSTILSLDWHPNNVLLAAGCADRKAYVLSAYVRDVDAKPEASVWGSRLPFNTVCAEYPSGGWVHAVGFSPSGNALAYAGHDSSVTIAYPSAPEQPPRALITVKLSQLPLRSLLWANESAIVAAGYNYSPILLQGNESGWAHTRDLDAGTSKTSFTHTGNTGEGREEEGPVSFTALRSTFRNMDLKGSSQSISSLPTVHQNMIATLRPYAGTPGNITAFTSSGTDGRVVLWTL

Take “S. pombe Wsp1-CA (541SC–574D) (from UniProt O36027 541-574) (domain or fragment)”: the increase of mean ETeff at 20 μM CA is 0.06. Substance “S. pombe Wsp1p-VCA (497Q–574D) (from UniProt O36027 497-574) (domain or fragment)” yielded an increase of mean ETeff at 20 μM VCA of 0.13. For the substance “VCA crosslinked to an actin monomer (actin-VCA) (from UniProt O36027 497-574; P68139 1-377) (complex)”, the increase of mean ETeff at 2 μM actin-VCA is 0.12.
